Values quoted from earlier work in publication PMC7168109.

Molecular target: T1, PTK7 (tyrosine protein kinase 7, CCK4) on CCRF-CEM or Jurkat cells (UniProt Q13308)
T1 sequence: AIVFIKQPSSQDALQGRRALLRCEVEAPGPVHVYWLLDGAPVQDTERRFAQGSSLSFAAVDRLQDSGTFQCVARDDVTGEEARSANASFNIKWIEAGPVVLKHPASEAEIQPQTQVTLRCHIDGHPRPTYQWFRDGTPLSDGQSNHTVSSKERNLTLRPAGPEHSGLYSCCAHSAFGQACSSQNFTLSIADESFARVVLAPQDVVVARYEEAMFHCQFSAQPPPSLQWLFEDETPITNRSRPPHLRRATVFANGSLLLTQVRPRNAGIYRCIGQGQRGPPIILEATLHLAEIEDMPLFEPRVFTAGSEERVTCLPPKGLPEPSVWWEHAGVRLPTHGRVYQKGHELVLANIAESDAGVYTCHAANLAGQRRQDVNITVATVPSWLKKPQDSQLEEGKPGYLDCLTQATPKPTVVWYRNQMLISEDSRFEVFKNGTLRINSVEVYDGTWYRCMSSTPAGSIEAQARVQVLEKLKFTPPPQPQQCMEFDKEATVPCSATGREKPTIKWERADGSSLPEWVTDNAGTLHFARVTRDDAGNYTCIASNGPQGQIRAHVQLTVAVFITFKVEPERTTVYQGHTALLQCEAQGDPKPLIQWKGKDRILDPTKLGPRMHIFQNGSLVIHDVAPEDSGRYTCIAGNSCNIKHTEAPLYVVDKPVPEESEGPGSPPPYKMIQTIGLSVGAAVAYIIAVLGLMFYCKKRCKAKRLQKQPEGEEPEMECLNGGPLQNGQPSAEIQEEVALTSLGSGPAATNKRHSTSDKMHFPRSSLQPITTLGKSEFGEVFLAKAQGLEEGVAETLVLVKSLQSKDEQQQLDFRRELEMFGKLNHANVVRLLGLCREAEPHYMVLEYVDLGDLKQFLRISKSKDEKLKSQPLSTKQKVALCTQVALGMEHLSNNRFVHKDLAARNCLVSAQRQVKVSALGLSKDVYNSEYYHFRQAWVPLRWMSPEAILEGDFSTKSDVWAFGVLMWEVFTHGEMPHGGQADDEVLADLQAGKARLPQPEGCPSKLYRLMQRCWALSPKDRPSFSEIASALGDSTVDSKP
Test: cited, method not stated
Conditions: Flow cytometry on whole cells: 200 nM aptamer, 4 °C, 30 min in the dark, cells washed with PBS before incubation, three washes after; binding buffer and pH not …

**Q.** For Sgc8 (as cited), which Kd is on record?
**A.** 0.8 nM
